Experimental data: patent publication US20090176209A1

Molecular target: scArc-Vκ(E5)-HA fusion protein (Vκ(E5) fused to the C-terminus of scArc; pIE3AVκ(E5) series constructs) (phage P22)
Experiment: emulsion expression of the pIE3a^4AVκ(E5)-derived template; capture on 3F10-coated PCR tubes; quantitative PCR

Question: How did the percent of the total input genetic element DNA recovered in complex with the fusion protein on the mAb-coated surface turn out when “αHA rat mAb 3F10 (Roche), High Affinity anti-HA monoclonal antibody” was run?
Answer: Its percent of the total input genetic element DNA recovered in complex with the fusion protein on the mAb-coated surface is over 23%.
